B1: Nec1-Fc (Fc fusion, human, UniProt Q15223 31-355, looked up)
chain: QVVQVNDSMYGFIGTDVVLHCSFANPLPSVKITQVTWQKSTNGSKQNVAIYNPSMGVSVLAPYRERVEFLRPSFTDGTIRLSRLELEDEGVYICEFATFPTGNRESQLNLTVMAKPTNWIEGTQAVLRAKKGQDDKVLVATCTSANGKPPSVVSWETRLKGEAEYQEIRNPNGTVTVISRYRLVPSREAHQQSLACIVNYHMDRFKESLTLNVQYEPEVTIEGFDGNWYLQRMDVKLTCKADANPPATEYHWTTLNGSLPKGVEAQNRTLFFKGPINYSLAGTYICEATNPIGTRSGQVEVNITEFPYTPSPPEHGRRAGPVPTA
notes: Nectin-1 (CD111), human, soluble form fused to Fc; Probably the extracellular domain; also called Nectin-1; CD111; source: COS cells, transfected, purified from supernatants on Affi-Gel protein A
B2: Nec2-Fc (Fc fusion, human, UniProt Q92692 32-360, looked up)
chain: QDVRVQVLPEVRGQLGGTVELPCHLLPPVPGLYISLVTWQRPDAPANHQNVAAFHPKMGPSFPSPKPGSERLSFVSAKQSTGQDTEAELQDATLALHGLTVEDEGNYTCEFATFPKGSVRGMTWLRVIAKPKNQAEAQKVTFSQDPTTVALCISKEGRPPARISWLSSLDWEAKETQVSGTLAGTVTVTSRFTLVPSGRADGVTVTCKVEHESFEEPALIPVTLSVRYPPEVSISGYDDNWYLGRTDATLSCDVRSNPEPTGYDWSTTSGTFPTSAVAQGSQLVIHAVDSLFNTTFVCTVTNAVGMGRAEQVIFVRETPNTAGAGATGG
notes: Nectin-2 (CD112), human, soluble form fused to Fc; Probably the extracellular domain; also called Nectin-2; CD112; source: COS cells, transfected, purified from supernatants on Affi-Gel protein A
B3: PVR-Fc (Fc fusion, human, UniProt P15151 21-343, looked up)
chain: WPPPGTGDVVVQAPTQVPGFLGDSVTLPCYLQVPNMEVTHVSQLTWARHGESGSMAVFHQTQGPSYSESKRLEFVAARLGAELRNASLRMFGLRVEDEGNYTCLFVTFPQGSRSVDIWLRVLAKPQNTAEVQKVQLTGEPVPMARCVSTGGRPPAQITWHSDLGGMPNTSQVPGFLSGTVTVTSLWILVPSSQVDGKNVTCKVEHESFEKPQLLTVNLTVYYPPEVSISGYDNNWYLGQNEATLTCDARSNPEPTGYNWSTTMGPLPPFAVAQGAQLLIRPVDKPINTTLICNVTNALGARQAELTVQVKEGPPSEHSGISRN
notes: PVR (CD155, Necl-5), human, soluble form fused to Fc; Probably the extracellular domain; also called CD155; Necl-5; source: COS cells, transfected, purified from supernatants on Affi-Gel protein A

Each binder was assayed against T1, soluble Nectin-3 (Nec3-Fc) (human, UniProt Q9NQS3 58-404, biotin (the soluble copy in the in vitro binding assay: 'Biotinylated Nec3-Fc')) (assay: ELISA; Fc proteins (10^-7 M) captured on wells by goat anti-human Fc, 2 h 37 °C; free anti-Fc blocked with human immunoglobulin; biotinylated Nec3-Fc (10^-7 M) incubated 2 h at 37 °C in the absence of Ca2+; streptavidin peroxidase, ABTS). Conditions: both partners purified.
T1 construct: Nectin-3 (CD113), human, recombinant soluble form fused to Fc; Probably the extracellular domain; Biotinylated as analyte in the ELISA, not biotinylated when captured in the ELISA or used on cells; also called CD113; source: COS cells, transfected, purified from supernatants on Affi-Gel protein A
T1 sequence (Q9NQS3 58-404): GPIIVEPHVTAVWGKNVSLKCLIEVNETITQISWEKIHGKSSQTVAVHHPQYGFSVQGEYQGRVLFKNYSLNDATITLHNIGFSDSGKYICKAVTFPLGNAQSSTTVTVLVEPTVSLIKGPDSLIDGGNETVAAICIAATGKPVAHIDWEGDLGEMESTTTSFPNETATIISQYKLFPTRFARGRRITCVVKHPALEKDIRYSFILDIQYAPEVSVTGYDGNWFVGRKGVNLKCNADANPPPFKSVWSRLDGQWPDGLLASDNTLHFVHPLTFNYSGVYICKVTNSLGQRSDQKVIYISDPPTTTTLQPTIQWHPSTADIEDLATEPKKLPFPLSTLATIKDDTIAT

Binding result, binds:
B1
B2
B3

Reference: article PMC3792040, “Nectin-3 (CD113) Interacts with Nectin-2 (CD112) to Promote Lymphocyte Transendothelial Migration” (PLoS ONE, 2013)
